US9358302

Experiments:
Test in all cases: cell-based or functional assay
[1] = molecular target: GBSIII-OVAp (GBSIII conjugated to N-acetylated, C-terminally extended OVA323-339)
[2] = molecular target: OVA peptide 323-339 (OVAp)
[3] = molecular target: scrambled OVA peptide, scOVAp

T-cell receptor of DO11.10 transgenic mice that recognizes OVA peptide 323-339 in the context of MHC class II (I-A^d) (TCR)
T cell proliferation, [3H]thymidine incorporation, 10 µg GBSIII-OVAp [1]: 12700 cpm | fold lower T cell proliferation against the same amount of OVAp [1]: 23 fold | T cell proliferation, [3H]thymidine incorporation, 2.5 µg OVAp [2]: 285000 cpm | T cell proliferation, stimulation index (SI), 0.013 µg OVAp [2]: 35 SI | T cell proliferation, stimulation index (SI), 0.13 µg OVAp [2]: 781 SI | T cell proliferation, stimulation index (SI), 1.3 µg OVAp [2]: 2940 SI | T cell proliferation, [3H]thymidine incorporation [3]: < 500 cpm
